Data as given in paper PMC9352680, “A comprehensive thermodynamic model for RNA binding by the Saccharomyces cerevisiae Pumilio protein PUF4”.

Target: T1, PUF4 RNA-binding domain (Saccharomyces cerevisiae, UniProt P25339 537-888)
T1 sequence: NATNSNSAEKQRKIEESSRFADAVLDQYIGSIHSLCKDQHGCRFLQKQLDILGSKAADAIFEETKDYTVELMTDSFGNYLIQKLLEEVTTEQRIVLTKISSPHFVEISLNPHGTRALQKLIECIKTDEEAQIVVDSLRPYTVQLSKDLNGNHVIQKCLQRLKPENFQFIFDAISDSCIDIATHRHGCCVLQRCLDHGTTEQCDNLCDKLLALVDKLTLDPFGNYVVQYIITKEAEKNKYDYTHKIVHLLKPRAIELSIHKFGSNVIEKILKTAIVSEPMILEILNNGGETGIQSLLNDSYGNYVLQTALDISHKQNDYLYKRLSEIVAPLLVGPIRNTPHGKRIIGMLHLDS
Test: Mg; RNA-MaP; 20 mM Na-HEPES pH 7.4, 30 mM KOAc, 0.75 mM MgCl2, 0.1% Tween-20, 5% glycerol, 0.1 mg/mL BSA, 2 mM DTT; 25 C; 0.0125-409.6 nM protein
Conditions: tags: N-His6-TEV cleaved; C-SNAP kept, Cy3B-labelled; label: tethered on chip by stalled RNA polymerase

ACAAACUCUAUAUAUAAUACAAAC (ssRNA) [Id_ii_S3_P3E.3_K3.2_C3.2_[C-2T]_[T-1C]_H3.2_A3.1_F3.1_T3.2_[T9A]_[A10T]]
Kd: 72 nM

ACAAACUCUAUAUAUAAAACAAAC (ssRNA) [Id_ii_S3_P3E.3_K3.2_C3.2_[C-2T]_[T-1C]_H3.2_A3.1_F3.1_T3.2_[T9A]]
Kd: 932 nM

ACAAACUCUAUAUAUAUCACAAAC (ssRNA) [Id_ii_S3_P3E.3_K3.2_C3.2_[C-2T]_[T-1C]_H3.2_A3.1_F3.1_T3.2_[A10C]]
Kd: 493 nM

UCUCUUUGUAUUCUCAUCUCUU (ssRNA) [Ib_S1_P5E.1_K5.1_C5.1_H5.1_A5.1_[A7C]_F5.1_[T9C]_T5.1]
Kd: 29.8 nM

ACAAACUCUAUAUAUAUUACAAAC (ssRNA) [Id_ii_S3_P3E.3_K3.2_C3.2_[C-2T]_[T-1C]_H3.2_A3.1_F3.1_T3.2_[A10T]]
Kd: 39 nM

ACAAACUAUAUAUAUACAACAAAC (ssRNA) [Id_ii_S3_P3E.3_K3.2_C3.2_[C-2T]_[T-1A]_H3.2_A3.1_F3.1_T3.2_[T9C]]
Kd: 205 nM

ACAAACUAUAUAUAUAACACAAAC (ssRNA) [Id_ii_S3_P3E.3_K3.2_C3.2_[C-2T]_[T-1A]_H3.2_A3.1_F3.1_T3.2_[T9A]_[A10C]]
Kd: 376 nM

ACAAACUUUAUAUAUACAACAAAC (ssRNA) [Id_ii_S3_P3E.3_K3.2_C3.2_[C-2T]_H3.2_A3.1_F3.1_T3.2_[T9C]]
Kd: 925 nM

ACAAACUUUAUAUAUAACACAAAC (ssRNA) [Id_ii_S3_P3E.3_K3.2_C3.2_[C-2T]_H3.2_A3.1_F3.1_T3.2_[T9A]_[A10C]]
Kd: 522 nM

ACAAACUUUAUAUAUAAUACAAAC (ssRNA) [Id_ii_S3_P3E.3_K3.2_C3.2_[C-2T]_H3.2_A3.1_F3.1_T3.2_[T9A]_[A10T]]
Kd: 149 nM

ACAAACUUUAUAUAUAUUACAAAC (ssRNA) [Id_ii_S3_P3E.3_K3.2_C3.2_[C-2T]_H3.2_A3.1_F3.1_T3.2_[A10T]]
Kd: 34.5 nM

ACAAACUUUAUAUAUAUAACAAAC (ssRNA) [Id_ii_S3_P3E.3_K3.2_C3.2_[C-2T]_H3.2_A3.1_F3.1_T3.2]
Kd: 595 nM

ACAAACAGUAUAUAUACCACAAAC (ssRNA) [Id_ii_S3_P3E.3_K3.2_C3.2_[C-2A]_[T-1G]_H3.2_A3.1_F3.1_T3.2_[T9C]_[A10C]]
Kd: 1920 nM

ACAAACAGUAUAUAUAACACAAAC (ssRNA) [Id_ii_S3_P3E.3_K3.2_C3.2_[C-2A]_[T-1G]_H3.2_A3.1_F3.1_T3.2_[T9A]_[A10C]]
Kd: 522 nM

UCUCUUUGUAUUUUCAUCUCUU (ssRNA) [Ic_S1_P5E.1_K5.1_C5.1_H5.1_A5.1_[A7T]_F5.1_[T9C]_T5.1]
Kd: 32.5 nM

ACAAACACUAUAUAUACGACAAAC (ssRNA) [Id_ii_S3_P3E.3_K3.2_C3.2_[C-2A]_[T-1C]_H3.2_A3.1_F3.1_T3.2_[T9C]_[A10G]]
Kd: 1040 nM

ACAAACACUAUAUAUACCACAAAC (ssRNA) [Id_ii_S3_P3E.3_K3.2_C3.2_[C-2A]_[T-1C]_H3.2_A3.1_F3.1_T3.2_[T9C]_[A10C]]
Kd: 816 nM

ACAAACACUAUAUAUACUACAAAC (ssRNA) [Id_ii_S3_P3E.3_K3.2_C3.2_[C-2A]_[T-1C]_H3.2_A3.1_F3.1_T3.2_[T9C]_[A10T]]
Kd: 43.8 nM

ACAAACACUAUAUAUACAACAAAC (ssRNA) [Id_ii_S3_P3E.3_K3.2_C3.2_[C-2A]_[T-1C]_H3.2_A3.1_F3.1_T3.2_[T9C]]
Kd: 735 nM

ACAAACACUAUAUAUAAGACAAAC (ssRNA) [Id_ii_S3_P3E.3_K3.2_C3.2_[C-2A]_[T-1C]_H3.2_A3.1_F3.1_T3.2_[T9A]_[A10G]]
Kd: 450 nM

ACAAACACUAUAUAUAAAACAAAC (ssRNA) [Id_ii_S3_P3E.3_K3.2_C3.2_[C-2A]_[T-1C]_H3.2_A3.1_F3.1_T3.2_[T9A]]
Kd: 1080 nM

ACAAACACUAUAUAUAUGACAAAC (ssRNA) [Id_ii_S3_P3E.3_K3.2_C3.2_[C-2A]_[T-1C]_H3.2_A3.1_F3.1_T3.2_[A10G]]
Kd: 572 nM

ACAAACACUAUAUAUAUCACAAAC (ssRNA) [Id_ii_S3_P3E.3_K3.2_C3.2_[C-2A]_[T-1C]_H3.2_A3.1_F3.1_T3.2_[A10C]]
Kd: 541 nM

ACAAACACUAUAUAUAUAACAAAC (ssRNA) [Id_ii_S3_P3E.3_K3.2_C3.2_[C-2A]_[T-1C]_H3.2_A3.1_F3.1_T3.2]
Kd: 873 nM

ACAAACAAUAUAUAUACGACAAAC (ssRNA) [Id_ii_S3_P3E.3_K3.2_C3.2_[C-2A]_[T-1A]_H3.2_A3.1_F3.1_T3.2_[T9C]_[A10G]]
Kd: 1290 nM

UCUCUUUGUAUUGUAAUCUCUU (ssRNA) [Ib_S1_P5E.1_K5.1_C5.1_H5.1_A5.1_[A7G]_F5.1_[T9A]_T5.1]
Kd: 10.6 nM

ACAAACAAUAUAUAUAAGACAAAC (ssRNA) [Id_ii_S3_P3E.3_K3.2_C3.2_[C-2A]_[T-1A]_H3.2_A3.1_F3.1_T3.2_[T9A]_[A10G]]
Kd: 1090 nM

ACAAACAAUAUAUAUAAUACAAAC (ssRNA) [Id_ii_S3_P3E.3_K3.2_C3.2_[C-2A]_[T-1A]_H3.2_A3.1_F3.1_T3.2_[T9A]_[A10T]]
Kd: 98.1 nM

ACAAACAAUAUAUAUAUUACAAAC (ssRNA) [Id_ii_S3_P3E.3_K3.2_C3.2_[C-2A]_[T-1A]_H3.2_A3.1_F3.1_T3.2_[A10T]]
Kd: 94 nM

ACAAACAUUAUAUAUAGUACAAAC (ssRNA) [Id_ii_S3_P3E.3_K3.2_C3.2_[C-2A]_H3.2_A3.1_F3.1_T3.2_[T9G]_[A10T]]
Kd: 67.5 nM

ACAAACAUUAUAUAUAACACAAAC (ssRNA) [Id_ii_S3_P3E.3_K3.2_C3.2_[C-2A]_H3.2_A3.1_F3.1_T3.2_[T9A]_[A10C]]
Kd: 708 nM
